The text below walks through data of the DeepSol protein solubility set.

A short description of the data set: soluble on expression in E. coli; label from the status in PepcDB or PDB records.
Turning to “MSDFMSNTAALQLLHNAVKSYEREVANFFAANEKATSKYTGRFDFRQFAKKMFDPIPTAQLGQLYIEMLEESHIYMHSHQKSRVGANGYPHSFVSVPELLLNMILAYQLPQQRFVPAEKMEEDGGKVEEDGGAGGAGGSRKKRRNSAARKGKNVTINPRVVLGNELAAKLLEEMLKIPLAPESKQWKTAKYVLCPSSCPQQMEVFGEIIAKNTKSGLISFNALNYFMHDPILNRYLDDPITILHALYIGPLQAPTVELFATNRTDVFRQRCREVLRIALHASKDPMTFTYSVPEFIDKNHPDRCSYRDFVETVTQLIRDLNGEHQGSTAIHTGWACAAIKKFGQKRYVDKTWKDENYYDLIWTVLAQRPHLKKFVVDVLEKNFKDLDAARFWRRMQPYQMNPTVIFNQNVIIVDPLQPTDEFLNFPPTVRHIQMVTNEKEIRDLQMLLEYKVSREEKIYVGVDAEWSAYVSPSKATILQMSLHDCIYIIDLESYQISPQSYHHVLSYLFETPEIVKIGFQFGEDLHQLRAAFRNCVALYRPNNVVCVGKLIMDLMDEIGKLENCDDFRKEWLPHLTDNETSSAANSSVEEQANETIDTNESMDEGDGGGSGIVVKKEESVKQQFLNKGLSFICEKLLGRPLDKTEQCSVWDRRPLRCLQLRYAAMDAYCMLLLYEKCATIFAKLGINVNDFVSKQSPIRISLPLLSEEKL”, the “soluble on expression in E. coli” value was “not soluble”.
“MSDGQHRAADAVVVGAGLAGLACALDLCRAGWRVALLEASDGVGGRMRTDRRDGFLLDRGFQVFNTSYPQVKRRMELKSLRLRPFTAGVVAHTSNGPVRLADPTREPRAAGTLLPGRALPARDLAALAALTARDAVLPVAVTRRRRDRPTSAALSRVGLSDAAIAGILRPFLSGVFLEDRLETSARFFHLVWRSMVRGSLCLPAEGIGAVPAQLADGLPDGVLRLGTPVAEITDAGVLLGDGGEVPARVVVVATDPATAAGLLPDLTVPDTRTVTTYYHATDSPPTAEPILMVDSTGAILNTCVLSQVAPTYAPPGTGLVSTSVLGTDPPGRAQAVLRRLAELYGTDTSGWEQVAARTVDGALPAMLPPWPLSRTTRIGPGRYVCGDHRATGSVQGALASGTRAAREVRADREPQRLEHHHHHH”: the “soluble on expression in E. coli” value is listed as “soluble”.
“MSDHLGSSHDEGELSDESHKKSQRASSSDEPNPAKSNKGLESKMRESILSRLSKRKNSESDDDTTEQRFSIQPKNAQKAKEDRYRDKERDKKREKDKRDDRRDVRGPDARQKDRDFKGRQERSGRDQKVHEHRHHHHHRKHETDGHRTNRSNRDRSSERDSEKHKRHIDRHKKSSTTSPDNDKSPHKKSKHTDVPADAKLFDRILDPNYKKKDDDVLVIEDVEMSPIEILEEKEEKEIVEFTIDSPAGPKKYSKFESDPESDHDDTKPKSPGKAEDDDDVIEVLDDALHSDDDADSDEDKYLKTPEDREWEEMTETEQRLHKEAMKKRASMKQKTLIAQLPVFYPGLMGCRNIDEYECVNRVDEGTFGVVYRGKDKRTDEIVALKRLKMEKEKEGFPITALREINMLLKAGNHPNIVNVKEILLGSNMDKIYMAMEFVEHDMKSLLDTMSRRNKRFSIGEQKTLLQQLLSGIEHMHKLWILHRDLKTSNLLMSHKGILKIADFGLAREYGDPLKKFTSIVVTLWYRSPELLLGTRLYSTPVDMWSVGCIMAEFILLKPLFPGRGELEQIKKIFMEMGTPTESIWPGVTELDGWKALTFEKYPYNQLRKRFLAGRLLNDTGFKLLNGLLTLDPKNRFSATQALDHEWFTEEPYPVPPEEFPTFPAKSEQNKAPPPAKQKQQENRISHVDPETAKLLKQFEVRPEQVKPGGFSLKFDPTRF”: the “soluble on expression in E. coli” value is listed as “not soluble”.
Under “MSDIKHEKKLANMDTPGETTKSFENKLDEEIPDIEESDFINSPPFSDEIFSPEDSKQVEISELSKQAYSLLKGNSITEAINVFKKILELDPTNNYALVGLGDAERKNNKFNEAIKFYKQCLEHHPSNNYALFGLADCYKSMNQFPRAIAIWEEYLKFDDKNITVLTRVADAYRKTKEFEKAEKLYQKVLEKSPKNAYALIGLGHLNYDFKKYREALVYWEKVMESSGELVDIRILTSIGNCYRKMKLFDRGVYYFERALERSPDNFYGLFGLADCYRGLNQQYNSIVYWKKILELDPNNKVILTRIGDAYRSMNDFEKAKESYQKALDIDFDSYAMLGLAILCKLQQKYDQAITTLTHLKDTGDTNYNYRVYLELAQCYIEKKEKQKAIETLIDFQKLGIKNQTVSDLLFELTKNDH” stands “not soluble”; under “MSDLDTPTPSPHPVLLNLEQFLPYRLSVLSNRISGNIAKVYGDRYGMAIPEWRVITILALYPGSSASEVSDRTAMDKVAVSRAVARLLERGFIRRETHGDDRRRSMLALSPAGRQVYETVAPLVNEMEQRLMSVFSAEEQQTLERLIDRLAKDGLPRMASKD”, “soluble”.
In the case of “MSDLQKLQRFSTCDISDGLLNVYNIPTGGYFPNLTAISPPQNSSIVGTAYTVLFAPIDDPRPAVNYIDSVPPNSILVLALEPHLQSQFHPFIKITQAMYGGLMSTRAQYLKSNGTVVFGRIRDVDEHRTLNHPVFAYGVGSCAPKAVVKAVGTNVQLKILTSDGVTQTICPGDYIAGDNNGIVRIPVQETDISKLVTYIEKSIEVDLLVSEDIKNGIPAKQAQNDRRSVLKKYIHHHHHH”, the “soluble on expression in E. coli” value is on record as “soluble”.
For the sequence “MSDPRPARAVVVGIDGSRAATHAALWAVDEAVNRDIPLRLVYVIDPSQLSAAGEGGGQSAARAALHDASRKVEATGQPVKIETEVLCGRPLTKLMQESRSAAMLCVGSVGLDHVRGRRGSVAATLAGSALCPVAVIHPSPAEPATTSQVSAVVAEVDNGVVLRHAFEEARLRGVPLRAVAVHAAETPDDVEQGSRLAHVHLSRRLAHWTRLYPEVRVDRAIAGGSACRHLAANAKPGQLFVADSHSAHELCGAYQPGCAVLTVRSANL”, the “soluble on expression in E. coli” value is given as “not soluble”.
As for “MSDSNTPNPPGTEERLVQQLDSYFSNTATGNETGEASAPAAPNNAAGTSDQDRPPNLAPILMLSYLNHCMSKKSFTPEDIQKSVWEQKSKKLSQEDWEFCKYFISSKELLLQLAPGKKRKTQAQALIELILKKFPGVGVEMLTRLLDPSESAYIIYDVIEQVKCEPKCDAESIKQEEFMYSQKINKKIRENNKCFKFSMVFERLRNGSSLPEEKPFAPLEFRTITSEYSNIYTQMVKATTYVELMDVMSKLKTTRLSVNELYFSAKHMQNPEKDTQDEFWEAESEKVLELQPLMIDPQLESTSRQRLKILQELALQQKMLKEVDEIISMSFELVTKSLSTGNPHNPADVQSLMINSNAPSIPDQRKNDWMEYYNLNPLGQYPISSHFPRSDRIGPKLPAVIQKISIRYCLSKEIEVIETIDEWKCREFCTYDHNLKDFRRHKCEICEVEVQECDLSLRQTKWCSHIEDQVLLMYNRVNGRLEQYVFSFETKGFKEVYCSCIEVTYRGKNGPEEPVLLTNGSEHVVIKEADPGVVKLQLVGENHVEIPAVPVQQLSAEEIEMQDAYDSSKSESESEHESEQISYNKTFISTLPMFKVRHCPLSRKDVLYVRSNNLGQYEKYDYHPTYHRFEPFKCSKCKDATSEDHLVPKYAEHCPETNEFVIHTENLFTERMEQYIYDSMTQGFRQVYYPQFLYDPSKDHTSNVFVTVNYLSTVITRDKDGRFKKEKFCDNLKKFVAIPEVEVNTFTVQELEKKKNKRRVDSDSDSFEHIEIPDMVSASP”, the “soluble on expression in E. coli” value is “not soluble”.
Take “MSDSPDSPPDAEPSIAARIAAVLPSLTPIHRRMGEYVLANPFRAATMRIDELANAVDASIATANRFARALGFDGYPALRAALVRGFEATLAPVERLRSAQEHEAGARGGELIDASFEQAL”: the “soluble on expression in E. coli” value is “not soluble”.
With “MSDSSQLHKVAQRANRMLNVLTEQVQLQKDELHANEFYQVYAKAALAKLPLLTRANVDYAVSEMEEKGYVFDKRPAGSSMKYAMSIQNIIDIYEHRGVPKYRDRYSEAYVIFISNLKGGVSKTVSTVSLAHAMRAHPHLLMEDLRILVIDLDPQSSATMFLSHKHSIGIVNATSAQAMLQNVSREELLEEFIVPSVVPGVDVMPASIDDAFIASDWRELCNEHLPGQNIHAVLKENVIDKLKSDYDFILVDSGPHLDAFLKNALASANILFTPLPPATVDFHSSLKYVARLPELVKLISDEGCECQLATNIGFMSKLSNKADHKYCHSLAKEVFGGDMLDVFLPRLDGFERCGESFDTVISANPATYVGSADALKNARIAAEDFAKAVFDRIEFIRSN”, the “soluble on expression in E. coli” value was “soluble”.
With “MSDVIEQYFVKNEPYYRPVADEVKLYEAAYSVRMPMMLKGPTGCGKTRFVEYMAWKLGKPLITVACNEDMTASDLVGRFLLDAQGTRWQDGPLTTAARYGAICYLDEVVEARQDTTVVIHPLTDNRRVLPLEKKGELVGAHPDFQLVISYNPGYQSLMKDLKQSTKQRFGALDFNYPQHDIETEIVSHETGIDSAIADKLVSIAERARNLKGHGLDEGISTRMLIYAGNLIAKGVDVHAACRMALVRPITDDPDMRDALDAAVTTFFLEHHHHHH”, the “soluble on expression in E. coli” value is given as “soluble”.
Under “MSDWTYSEGALDEAHWPQHYPACGGQRQSPINLQRTKVRYNPSLKGLNMTGYETQAGEFPMVNNGHTVQISLPSTMRMTVADGTVYIAQQMHFHWGGASSEISGSEHTVDGIRHVIEIHIVHYNSKYKSYDIAQDAPDGLAVLAAFVEVKNYPENTYYSNFISHLANIKYPGQRTTLTGLDVQDMLPRNLQHYYTYHGSLTTPPCTENVHWFVLADFVKLSRTQVWKLENSLLDHRNKTIHNDYRRTQPLNHRVVESNFPNQEYTLGSEFQAENLYFQ” stands “soluble”; under “MSDYAESYVSDCEVDPEELKNQSLFDKPRGVPRWLGKPHNSVKERLHNSVKDRTFIQKTVSSSEPLSRNAMDRIEASLTDNLNLDVVYSLNKKNRWQDAKTTFLLAGAPENVNAEVVEKNGLAQFGFIYPEKSTFAVHSRVLNKENKQGEFEIRSAITSSARGQDYSNFLPNTREFSKKANAKVMTLRSEEVDEDSKRQPTVSYNIYKTHRSQDVVGKEMFKAKVVSKSRRHRQNKKVDMENYDDLDEEFEDDEDEVVDSHRPTGVFDLAAFKVRTQSKQAHPKNRKDSELSYDMVDYDELETGSEYSQQFNVQEYLNQEGYTFIQADVTFVKLTEPFEDQINQLRLEGDLRVKDLQKNQYLIDISKRCQPNGTTQDGETTAVIVLTHLKHKTYNMIFNSTIGADPIRRNGENLRKIVSSAPTVLEVITKISGDVAEDKQLISRIKTSEKFYGRPSTSVDWNDLSLQRATCPNQYDNATWANSEELSVVGGKLEWDDLVAMVKKENNLVTCYSSDDFCGFCNRKKKSFELFLIKSSSETKIKCTECLRNEFYREFIARRLPIDLQTETADEMEYLPIFIPLTLLNLYIRTVAETIYKDLGATGDFEKCPSCKSTIFFEEPGNENKTQNRSCPCGYSWCRDCKGVPHWPMNCENYAEWEKKWHLRYAMMNAQGTGTVTLLQFTCHCKTVYYCLLPTKRVNCPGCRESVNLETMNTMYRQFYYSYPPRYRKWEKQYHEENKDTDRHPYQPLAKVCWEIDKIPAIKASVIETCGAARDVRFDLKFRNRVIKQEQVLIKKSILTSEVLENILGTIPYLVENVTAWMHMSNHQDKNLKSILESMIADRKDLVYYLESENEIEIEKCVKILRAKIDSVVSIVEKNMKNC”, “not soluble”; under “MSEAIGLIETVGLVAAIEAADAAVKAANVKLIGYELARGSGLTTVKIKGDVGAVKAAVEAGKAAALRVGKVYAVHIIPRPDKQVGFIVGEEKNLTLLMPVIEKEEKEKNDSEPKIKVTEGETIEKREIEQKFEKEDKSEAKEETGEVEEEDDKEGMAYTCNLCKDPGCPRKKGEPRTLCIHYNELKMR”, “not soluble”.
In the case of “MSEELLQKFLTSIEQEDGIAEIGKKKKNKSAARRDNVKTILHAASKGQVQLSAEESYIVQKPSTSKGSDYIDDRLASQGFSLIDQARSFKPKDLKKRNLKYMKFQEGRRIDKKKGRILVQAHMQTKQDLKSLRKEKKAIIGVKEPRRLLPGQKKKQKDKSVFSDADFAQVAHVAKRINSMADHSFL”, the “soluble on expression in E. coli” value is “not soluble”.
